The values that follow come from US20240092853A1 (Hoffmann-La Roche, published 2024).

The labels stand for the following.
B1: IL2v (soluble, from the phagemid, in bacterial supernatant) (ligand)
chain: APASSSTKKTQLQLEHLLLDLQMILNGINNYKNPKLTRMLTAKFAMPKKATELKHLQCLEEELKPLEEVLNGAQSKNFHLRPRDLISNINVIVLELKGSETTFMCEYADETATIVEFLNRWITFAQSIISTLT
notes: human IL-2 with T3A, F42A, Y45A, L72G, C125A; also called parental IL2v; not shown: C-terminal His tag and Flag tag of the phagemid
B2: ExplResIEE.P026.099 (ligand)
chain: B1 chain with L12E, D20E, M23N, R81N, D84E, S87E, R120E, T123E, S130E, T133N
notes: soluble pH-dependent IL2v variant in bacterial supernatant, first library; not shown: C-terminal His tag and Flag tag of the phagemid
B3: ExplResIEE.P026.237 (ligand)
chain: B1 chain with R81Q, S87E, V91D, T123E, S130E, T133D
notes: as m5; not shown: C-terminal His tag and Flag tag of the phagemid
B4: ExplResIEE.P041.017 (ligand)
chain: APASSSTKKTEEQLEHLLLDLQQILNGINNYKNPKLTRMLTAKFAMPKKATELKHLQCLEEELKPLEEVLNGAQSKNFHLQPRDLIDNINNIVLQLKGSETTFMCEYADETATIVEFLNHWIEFAQSIIETLE
notes: as for B3
B5: ExplResIEE.P041.242 (ligand)
chain: B1 chain with L19D, R81E, S130E, T133D
notes: as for B3
B6: ExplResIEE.P031.226 (ligand)
chain: B1 chain with L19D, M23N, R81D, T133E
notes: as for B3
B7: ExplResIEE.P042.107 (ligand)
chain: B1 chain with K8E, D20E, M23N, R81H, D84Q, S87E, R120H, S130E, T133D
notes: as for B3
B8: ExplResIEE.P030.045 (ligand)
chain: B1 chain with L19D, R81E, D84E, S87Q, R120H, S130E, T133E
notes: as for B3
B9: ExplResIEE.P041.449 (ligand)
chain: B1 chain with R81Q, S87E, V91D, R120E, S130E, T133D
notes: as for B3
B10: ExplResIEE.P027.359 (ligand)
chain: B1 chain with Q11E, L19D, R81D, D84E, S130E, T133D
notes: as for B3
B11: ExplResIEE.P026.175 (ligand)
chain: B1 chain with Q11E, D20Q, M23E, R81D, D84E, S87E, S130E, T133N
notes: as for B3
B12: ExplResIEE.P030.006 (ligand)
chain: B1 chain with R81D, D84Q, S87D, V91N, T123Q, S130E, T133D
notes: as for B3
B13: ExplResIEE.P026.191 (ligand)
chain: B1 chain with L12E, L19D, R81D, R120E, T123E, S130E, T133E
notes: as for B3
B14: ExplResIEE.P026.355 (ligand)
chain: B4 chain with Q81D, D87E, N91D, Q95E, H120R, E123T, E133Q
notes: as for B3
B15: ExplResIEE.P041.554 (ligand)
chain: B1 chain with L12Q, L19Q, R81H, V91E, T123E, S130E, T133E
notes: as for B3

Substitutions are numbered along the chain they refer to. Names and notes keep the numbering of the source.

T1 sequence (chain, as listed by the source limits assumed, chain 1 of 2): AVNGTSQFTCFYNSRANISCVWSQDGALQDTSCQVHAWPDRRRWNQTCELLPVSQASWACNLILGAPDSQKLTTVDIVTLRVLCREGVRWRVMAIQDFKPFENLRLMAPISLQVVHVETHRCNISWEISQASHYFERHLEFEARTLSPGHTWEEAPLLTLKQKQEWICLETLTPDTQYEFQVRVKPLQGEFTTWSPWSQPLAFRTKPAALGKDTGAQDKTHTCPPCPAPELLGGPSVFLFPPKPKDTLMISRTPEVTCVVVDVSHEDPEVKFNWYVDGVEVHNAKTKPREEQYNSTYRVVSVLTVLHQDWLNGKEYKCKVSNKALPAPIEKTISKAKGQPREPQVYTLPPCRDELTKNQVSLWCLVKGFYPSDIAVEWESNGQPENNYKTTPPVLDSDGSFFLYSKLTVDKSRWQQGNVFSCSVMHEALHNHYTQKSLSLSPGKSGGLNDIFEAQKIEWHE
T1 sequence (chain, as listed by the source limits assumed, chain 2 of 2): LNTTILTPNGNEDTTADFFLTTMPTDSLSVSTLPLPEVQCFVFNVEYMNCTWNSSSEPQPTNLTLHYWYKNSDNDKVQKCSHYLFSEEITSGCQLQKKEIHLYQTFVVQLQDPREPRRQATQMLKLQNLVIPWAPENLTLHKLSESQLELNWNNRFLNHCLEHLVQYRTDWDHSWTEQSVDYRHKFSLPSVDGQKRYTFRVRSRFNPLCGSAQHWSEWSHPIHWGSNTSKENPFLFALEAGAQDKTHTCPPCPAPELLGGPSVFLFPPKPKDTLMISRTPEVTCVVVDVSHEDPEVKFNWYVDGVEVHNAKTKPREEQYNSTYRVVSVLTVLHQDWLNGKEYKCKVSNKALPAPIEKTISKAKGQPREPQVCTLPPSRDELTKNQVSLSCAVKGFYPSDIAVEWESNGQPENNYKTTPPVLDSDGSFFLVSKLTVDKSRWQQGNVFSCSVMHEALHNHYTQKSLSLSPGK

The first test has as its target T1, IL2R(bg)-Fc construct (human IL2R beta extracellular domain fused to Fc(knob) with avi tag, human IL2R gamma … (human, biotin on the C-terminal avi tag (co-expressed BirA))).
T1 construct: Knob-into-hole Fc heterodimer; also called IL2Rβγ; human heterodimeric IL-2 receptor beta/gamma
The experiment in a line: ELISA: IL2R(bg)-Fc coated ('100nM IL2R coated'), soluble IL2v in bacterial supernatant adjusted to pH 6 or pH 7.4, washing at the same pH, detection with anti-Flag/HRP. How it is done:
Bacterial supernatant was harvested by centrifugation and pH was adjusted to either pH 6 or pH 7.4 using Bis-Tris buffer (final concentration: 50 mM BisTris, 140 mM NaCL). Supernatant was incubated in Neutravidin plates that were previously coated with the biotinylated IL2R(bg)-Fc construct and blocked with BSA. While extensive washing after 1 h was performed with Bis-Tris washing buffer at the respective pH 6 or 7.4 (50 mM BisTris, 140 mM NaCL, 0.1% Tween), all subsequent steps were performed at pH 6 to avoid any pH-dependent secondary effects. Binding of IL2v to the IL2R(bg)-Fc construct was detected via Flag tag by using an anti-Flag/HRP secondary antibody.
In general terms: An ELISA detects its analyte on a solid surface through an enzyme-linked reagent.
Turning to B1, the binding result is “binds”.

The target of another test is T1, IL2R(bg)-Fc construct (human IL2R beta …). The experiment in a line: ELISA: biotinylated IL2R(bg)-Fc coated on neutravidin plates, clone in bacterial supernatant bound at pH 6, washing and 30 min incubation at pH 6 or pH 7.4, detection with anti-Flag/HRP; absorption at pH 6 set to 1. How it is done:
FIG. 3. Binding analysis for the first set of selected pH-dependent IL2v variants to IL2Rfβγ at pH 6 and pH 7.4 by ELISA. Bacterial supernatants containing clonal pH-dependent IL2v variants were incubated with previously coated IL2Rfβγ. Prior to the detection by an anti-Flag/HRP secondary antibody, extensive washing for 30 minutes was performed at pH 6 or pH 7.4. The absorption at pH 6 was normalized to a value of 1 and the ratio of absorption levels was compared.
25 μl of 50 nM biotinylated antigen per well were coated at pH 6 on 384-well neutravidin plates and blocked with 2% BSA (50 mM BisTris 140 mM NaCl, 2% BSA, pH 6). Bacterial supernatants containing soluble variants of IL2v were re-buffered to pH 6, added to the plates and incubated for 1 h. Subsequently, several washing steps were performed at either pH 6 or pH 7.4 followed by an incubation step in washing buffer for 30 min at the respective pH. Binding of pH-dependent IL2v variants to the IL2R(bg)-Fc construct was detected via Flag tag by using an anti-Flag/HRP secondary antibody. Comparison of the signal between the two conditions (pH 6 vs pH 7.4) allowed identifying constructs that bind in a pH-dependent manner. The phagemid expressing the parental IL2v construct was used as an internal pH-independent control. […] (FIG. 3), were selected (SEQ ID NOs 5-19) and converted into one-armed (OA) targeted conjugates.
Consider B2, for which the binding result is “binds”. Still for that read-out and setting: under B3 stands “binds”; under B4, “binds”; under B5, “binds”. The same measure, in the same setting: under B6 stands “binds”; under B7, “binds”. In the case of B8, the binding result is listed as “binds”.

B9: the binding result was “binds”.

For B10, the binding result is given as “binds”. As for B11, the binding result is given as “binds”. Take B12: the binding result is reported as “binds”. For B13, the binding result is reported as “binds”. Regarding B14, the binding result was “binds”. B15: the binding result is “binds”.
